Reference: patent US20240052052A1 (published 2024)
Substitutions are numbered along the chain they refer to.

B1: 33E7E12 (antibody, V domains shown)
VH: EVKLEESGGGLVQPGGSMKLSCFVSGFTFSNSWMNWVRQSPEKGLEWVAQIQLKSDNYATRYVESVRGRFIISRDDSKSSVSLQMNNLRTEDTGIYYCSSGTDYWGQGTTLTVSS
VL: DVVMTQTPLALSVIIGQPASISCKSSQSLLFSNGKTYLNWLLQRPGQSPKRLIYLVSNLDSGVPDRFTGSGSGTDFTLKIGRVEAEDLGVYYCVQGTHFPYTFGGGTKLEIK
B2: 107D10D11-hIgG (antibody, V domains shown)
VH: QIQLKQSGPGLVQPSQSLSITCTVSGFSLSSYGVNWVRQSPGKGLEWLGMIWSGGNTDYNAAFISRVSFTKDNSKSQVFFTMNSLQADDTAIYYCARIWYYGMDYWGQGTSVTVSS
VL: DIVMTQSQKFMSTTVGDRVSITCKASQNVGTAVAWFQQKPGQSPKILIYSASIRYPGVPDRFTGSGSGTDFTLTTSNVQSEDLADYFCLQYITFPRTFGGGTKLYIK
B3: 101H9G9A2-hIgG (antibody, V domains shown)
VH: QVQLLQPGAELVRPGSSVKLSCKASDYTFTSYWMDWVKQRPGQGLEWIGNIYPSDSKTHYNQKFKDKATLTVDKSSSTAYMQLNSLTSEDSAVYYCARRGGYYAYAMDYWGQGTSVTVSS
VL: DIVMTQSPSSLSVSAGEKVTMRCKSSQSLLNSGNQDNYLAWYQQKPGQPPKLLLYGARIRESGVPDRFIGSGSGTDFTLTISSVQAEDLAVYYCQNDHSYPYTFGGGTKVEIK
B4: 101H9G9A2 (antibody, V domains shown)
VH: B3 VH
VL: B3 VL
B5: SN3 (antibody, V domains shown)
VH: QVQLKESGPGLVAPSQSLSITCTVSGFSLTSYGVHWVRQPPGKGLEWLGVIWAGGSTNYNSALMSRLSISKDNSKSQVFLKMNSLQTDDTAMYYCAVYYGYLFFAYWGQGTLVTVSA
VL: ENVLTQSPAIMSASPGEKVTMTCSASSSVSYMHWYQQKSTTSPKLWIYDTSKLASGVPGRFSGSGSGNSYSLTISSMEAEDVATYYCFQGSGYPLTFGGGTKLEIK
B6: ch81A1F8-hIgG4 (antibody, V domains shown)
VH: EVQLQQSGPELVKPGASVKISCKATGYLFTGYYMNWVKQSPEKSLEWIGEINPNTGDTNNNQKFKAKATMTVDRSSSTAYMQLKRLTSEDSAVYYCVRRDYGTSLDYWGQGTTLTVSS
VL: DVQITQSPSYLAASPGETITINCRASKSINKYLAWYQEKPGKTNKLLIHSGSTLQSGIPSRFSGSRSGTDFTLTISNLEPEDFAMYYCQQHNEYPITFGAGTKLELK
B7: 81A1F8 (antibody, V domains shown)
VH: B6 VH
VL: B6 VL
B8: 110D4G4 (antibody, V domains shown)
VH: EVQLQQSGPGLVKPGASVKISCRASGYLFTGYYMNWVKQSPEKSLEWIGEINPNTGDPRYDQKFKAKATLTVDRSSSTAYMHLKSLTSEDSAVYFCARRDYGTSLDYWGQGTTLTVTS
VL: B6 VL with N30S, H49Y, R66G, T69S, N77S, I96L
B9: ch110D4G4-hIgG4 (antibody, V domains shown)
VH: B8 VH
VL: B6 VL with N30S, H49Y, R66G, T69S, N77S, I96L
B10: 81A1F8-hIgG1 (antibody, V domains shown)
VH: B6 VH
VL: B6 VL

What was measured:
Human CD24-mFc [1] = biological target: T1, Human CD24-mFc (human, UniProt P25063 27-59); experiment: SPR (BIAcore)
T1 chain: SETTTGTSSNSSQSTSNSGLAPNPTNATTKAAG

human CD24 [2] = biological target: T2, human CD24 (human, UniProt P25063 27-59, heavily glycosylated, GPI-anchored (as described in the background)); experiment: FACS binding; DoHH2 cells
T2 chain: T1 chain

human CD24 [3] = biological target: T2, human CD24; experiment: FACS binding; Nalm6 cells
human CD24 [4] = biological target: T2, human CD24; experiment: FACS binding; Huh7 cells
human CD24 [5] = biological target: T2, human CD24; experiment: FACS binding; MCF7 cells
human CD24 [6] = biological target: T2, human CD24; experiment: FACS binding; DoHH2 cells
Human CD24-mFc [7] = biological target: T1, Human CD24-mFc; experiment: BLI (Gatorprime)
Human CD24-mFc [8] = biological target: T1, Human CD24-mFc; experiment: SPR (BIAcore); hIgG4
Human CD24-mFc [9] = biological target: T1, Human CD24-mFc; experiment: SPR (BIAcore); hIgG1

| Binder | Kd (Human CD24-mFc [1]) | EC50 (human CD24 [2]) | EC50 (human CD24 [3]) | EC50 (human CD24 [4]) | EC50 (human CD24 [5]) | other results |
| --- | --- | --- | --- | --- | --- | --- |
| B1 | 3.08 nM | 5.08 nM | 21.5 nM |  |  |  |
| B2 |  |  |  | 1.39 nM | 2.19 nM |  |
| B3 |  |  |  | 0.815 nM | 2.2 nM |  |
| B4 | 1.24 nM | 0.218 nM | 2.55 nM |  |  |  |
| B5 |  |  |  |  |  | EC50 (human CD24 [6]): 1.87 nM |
| B6 |  |  |  |  | 4.09 nM | Kd (Human CD24-mFc [7]): 0.241 nM; Kd (Human CD24-mFc [8]): 2.23 nM |
| B7 | 0.095 nM | 0.819 nM | 11.4 nM |  |  |  |
| B8 | 0.124 nM | 0.61 nM | 24.6 nM |  |  |  |
| B9 |  |  |  | 1.72 nM |  |  |
| B10 |  |  |  |  |  | Kd (Human CD24-mFc [9]): 2.29 nM |
